The test system of series [1] is urothelial carcinoma in human bladder specimens. The series is described as follows: Ex vivo NIR fluorescence imaging of radical cystectomy bladder specimens, 60 min instillation. As to the method: 22 urothelial carcinoma patients that were scheduled for radical cystectomy were selected over a twelve month period. After radical cystectomy, bladder specimens were immediately removed and irrigated 3 times for 5 min via catheter with non-buffered saline and instilled and incubated with 80 ml of 8 μM or 32.8 μg/ml (unless otherwise is stated, see notes to Table 8) of ICG-Var3 construct or ICG-Cys in PBS pH 7.4 containing 10 mM D-glucose for 60 minutes. Then, the unbound constructs were removed by rinsing with 80 ml of saline solution 3-5 times, the bladder was irrigated thoroughly with buffered saline and opened using a Y incision on the anterior wall. Using a da Vinci Si near-infrared fluorescence imaging system (Firefly^R), ex vivo fluorescent and white light imaging of the entire bladder and its parts was performed. The fluorescent spots were marked and standard pathological analysis was carried out to explore the correlation between appearance of fluorescent signal and cancer lesions.
The specimen was sectioned and submitted after 24 hour fixation in 10% phosphate-buffered formalin according to the standard institutional grossing manual, with emphasis on the marked areas of the bladder. The sections were processed for routine histology into paraffin-embedded blocks. […]
Statistical parameters were calculated according to the following equations: […]

The nature of series [2]: NIR fluorescence imaging of blood vessels and blood flow (ear, leg, blood samples) in mice. The format is in vivo, mouse. The settings on record: blood collected 5-120 min after IV injection. As to the method:
Adult female nude mice (Envigo), 20 g in body mass were used in the study. Fluorescent constructs were given as a single tail vein injection in amounts of 100 μL of 40 μM in PBS. Imaging of mouse ear and leg was performed at 5, 30, 60, 90 and 120 min after construct administration. At 5, 30, 60, 90 and 120 min after construct administration 5 μL of blood was withdrawn from tail (and mixed with 5 μL of anticoagulating solution to preserve blood) while animal was under anesthesia. Mice were euthanized immediately after last imaging point (120 min). Blood collected from all animals was deposited on the glass slide, dried and imaged. Imaging was performed using Novadaq clinical imaging instrument. Autofluorescence was established by imaging mouse with no injection of fluorescent constructs (the level of autofluorescence signal was insignificant compared to the signal after the constructs administration).

The subject of series [3] is 4T1 murine mammary carcinoma. In words: Tumor targeting in mice bearing 4T1 tumors. The settings on record: 20 μM, IV, 16 h. The format is in vivo, mouse. As to the method:
Adult female nude mice and female BALB/cAnNHsd mice (Envigo), 20-25 g in body mass were used in the study. Mouse mammary cancer 4T1 cells were subcutaneously implanted in the right flank (8×10^5 cells/0.1 mL/flank) of adult female BALB/cAnNHsd mice. Rat bladder cancer AY27 cells were subcutaneously implanted in the right flank (8×10^5 cells/0.1 mL/flank) of adult female nude mice. When tumors reached approximately 5-6 mm in diameter, single tail vein injection or single intraperitoneal injection of fluorophore-pHLIP® solutions in PBS were performed. Fluorescent constructs were used in amounts of 100 μL of 40 μM, or 100 μL of 20 μM, or 100 μL of 10 μM, or 100 μL of 5 μM. Imaging of mouse was performed at 16 hours after constructs administration. Skin was removed from the tumor site just before imaging while animal was under gas anesthesia, and mice were euthanized immediately after imaging. Tumor, kidney and liver were harvested, imaged and used for histopathological analysis. Imaging was performed using Stryker clinical imaging instrument. Autofluorescence was established by imaging mouse with no injection of fluorescent constructs (the level of autofluorescence signal was insignificant compared to the signal after the constructs administration).

1 compound from patent publication US11738096B2, “Method of detecting diseased or damaged tissue with a pH-triggered polypeptide fluorophore composition” (University of Rhode Island Board of Trustees, priority 2016, dated 2023) can be followed below.

Where a SMILES comes first, the peptide text is derived from it. The star is where a group is joined. X1 = CC1(C)C(/C=C/C=C/C=C/C=C2/N(CCCCCC(=O)NCCN3C(=O)CC(*)C3=O)c3ccc4ccccc4c3C2(C)C)=[N+](CCCCS(=O)(=O)[O-])c2ccc3ccccc3c21

Consider `CC(C)C[C@H](NC(=O)[C@H](Cc1ccc(O)cc1)NC(=O)[C@H](C)NC(=O)[C@H](CCCNC(=N)N)NC(=O)[C@H](Cc1c[nH]c2ccccc12)NC(=O)[C@@H]1CCCN1C(=O)[C@H](CC(N)=O)NC(=O)[C@H](CCC(N)=O)NC(=O)[C@H](CC(=O)O)NC(=O)[C@H](CC(=O)O)NC(=O)[C@H](CSC1CC(=O)N(CCNC(=O)CCCCCN2/C(=C/C=C/C=C/C=C/C3=[N+](CCCCS(=O)(=O)[O-])c4ccc5ccccc5c4C3(C)C)C(C)(C)c3c2ccc2ccccc32)C1=O)NC(=O)[C@H](C)N)C(=O)N[C@@H](CC(=O)O)C(=O)N[C@@H](CC(C)C)C(=O)N[C@@H](CC(C)C)C(=O)N[C@@H](Cc1ccccc1)C(=O)N1CCC[C@H]1C(=O)N[C@H](C(=O)N[C@@H](CC(=O)O)C(=O)N[C@H](C(=O)N[C@@H](CC(C)C)C(=O)N[C@@H](CC(C)C)C(=O)N[C@@H](CC(C)C)C(=O)N[C@@H](CC(=O)O)C(=O)N[C@@H](CC(C)C)C(=O)N[C@@H](CC(C)C)C(=O)N[C@@H](Cc1c[nH]c2ccccc12)C(=O)N[C@@H](C)C(=O)O)[C@@H](C)O)[C@@H](C)O` (stereo partly drawn) [ICG-Var3] (H-AC(X1)DDQNPWRAYLDLLFPTDTLLLDLLWA-OH), for which, in series [1], the “adverse morphological findings in specimens after incubation” value is reported as “did not show any adverse morphological findings”. For the same compound, in series [2], the “fluorescent signal in blood samples” value is given as “persistence of strong fluorescent signal within 2 hours”. Also, in series [3], the organ of clearance result is reported as “cleared by the liver”.
